Test results from patent US12091776B2, “Protease activity profiling via programmable phage display of comprehensive proteome-scale peptide libraries” (THE JOHNS HOPKINS UNIVERSITY, priority 2019, dated 2024).

T1: Caspase-1 (Homo sapiens, UniProt P29466)
T1 construct: purchased BioVision
T1 sequence (P29466 120-297 limits assumed): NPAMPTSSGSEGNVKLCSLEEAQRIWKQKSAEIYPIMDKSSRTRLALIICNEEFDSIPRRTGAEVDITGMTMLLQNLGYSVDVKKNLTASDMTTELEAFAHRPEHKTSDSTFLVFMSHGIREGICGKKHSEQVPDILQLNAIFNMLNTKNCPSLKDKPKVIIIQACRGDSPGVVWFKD
T1 sequence (P29466 317-404 limits assumed): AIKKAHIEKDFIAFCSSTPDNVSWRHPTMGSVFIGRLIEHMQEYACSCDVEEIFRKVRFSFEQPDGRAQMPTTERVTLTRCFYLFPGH

B1: HMGXB4 226-315: 90-aa human peptidome tile displayed on T7 phage (protein, UniProt Q9UGU5 226-315, looked up, fragment)
chain: KSARDEQGALLLGHELQSFLKTARKKHKSSSDAHSSPGPEGCGSDASQFAESHSANLDLSGLEPILVESDSSSGGELEAGELVIDDSYRE
modifications: displayed on T7 phage
B2: Efs 181-270: 90-aa human peptidome tile displayed on T7 phage (protein, UniProt O43281 181-270, looked up, fragment)
chain: PGEDDAPYDVPLTPKPPAELEPDLEWEGGREPGPPIYAAPSNLKRASALLNLYEAPEELLADGEGGGTDEGIYDVPLLGPEAPPSPEPPG
modifications: displayed on T7 phage
B3: Hyls1 1-90: 90-aa human peptidome tile displayed on T7 phage (protein, UniProt Q96M11 1-90, looked up, fragment)
chain: MEELLPDGQIWANMDPEERMLAAATAFTHICAGQGEGDVRREAQSIQYDPYSKASVAPGKRPALPVQLQYPHVESNVPSETVSEASQRLR
modifications: displayed on T7 phage
B4: HUWE1 2251-2340: 90-aa human peptidome tile of HUWE1 displayed on T7 phage (protein, UniProt Q7Z6Z7 2251-2340, looked up, fragment)
chain: ETLSRIVNQPSSLFGSKSASSKNKSEQDAQGASQDSSSNQQDPGEPGEAEVQEEDHDVTQTEVADGDIMDGEAETDSVVIAGQPEVLSSQ
modifications: displayed on T7 phage
B5: TNS3 451-540: 90-aa human peptidome tile displayed on T7 phage (protein, UniProt Q68CZ2 451-540, looked up, fragment)
chain: YSGTRHVVPAQVHVNGDAALKDRETDILDDEMPHHDLHSVDSLGTLSSSEGPQSAHLGPFTCHKSSQNSLLSDGFGSNVGEDPQGTLVPD
modifications: displayed on T7 phage
B6: ANAPC1 1-90: 90-aa human peptidome tile displayed on T7 phage (protein, UniProt Q9H1A4 1-90, looked up, fragment)
chain: MSNFYEERTTMIAARDLQEFVPFGRDHCKHHPNALNLQLRQLQPASELWSSDGAAGLVGSLQEVTIHEKQKESWQLRKGVSEIGEDVDYD
modifications: displayed on T7 phage
B7: Znf462 1-90: 90-aa human peptidome tile displayed on T7 phage (protein, UniProt Q96JM2 1-90, looked up, fragment)
chain: MEVLQCDGCDFRAPSYEDLKAHIQDVHTAFLQPTDVAEDNVNELRCGSVNASNQTEVEFSSIKDEFAIAEDLSGQNATSLGTGGYYGHSP
modifications: displayed on T7 phage
B8: UHRF1BP1L 991-1080: 90-aa human peptidome tile displayed on T7 phage (protein, UniProt A0JNW5 991-1080, looked up, fragment)
chain: EIGSETSDKKDSFYTDSSSILNYREDSNILSFDSDGNQNILSSTLTSKGNETIESIFKAEDLLPEAASLSENLDISKEETPPVRTLKSQS
modifications: displayed on T7 phage
B9: LYST 1171-1260: 90-aa human peptidome tile displayed on T7 phage (protein, UniProt Q99698 1171-1260, looked up, fragment)
chain: NYSADFEHNDAMTEKSHQSAEELSSQPGDFSEEAEDSQCCSFKLLVEEEGYEADSESNPEDGETQDDGVDLKSETEGFSASSSPNDLLEN
modifications: displayed on T7 phage
B10: BSN 631-720: 90-aa human peptidome tile displayed on T7 phage (protein, UniProt Q9UPA5 631-720, looked up, fragment)
chain: ATPKVKSGVRRAEPATPVVKAVPEAPKGGEAEDLVGKPYSQDASRSPQSLSDTGYSSDGISSSQSEITGVVQQEVEQLDSAGVTGPHPPS
modifications: displayed on T7 phage
B11: HUWE1 2296-2485: 90-aa human peptidome tile of HUWE1 displayed on T7 phage; position as printed (protein, UniProt Q7Z6Z7 2296-2485, looked up, fragment)
chain: PGEAEVQEEDHDVTQTEVADGDIMDGEAETDSVVIAGQPEVLSSQEMQVENELEDLIDELLERDGGSGNSTIIVSRSGEDESQEDVLMDEAPSNLSQASTLQANREDSMNILDPEDEEEHTQEEDSSGSNEDEDDSQDEEEEEEEDEEDDQEDDEGEEGDEDDDDDGSEMELDEDYPDMNASPLVRFERF
modifications: T7 phage display
notes: position as printed
B12: hoxa2 271-360: 90-aa human peptidome tile displayed on T7 phage (protein, UniProt O43364 271-360, looked up, fragment)
chain: SFPVSPLTSNEKNLKHFQHQSPTVPNCLSTMGQNCGAGLNNDSPEALEVPSLQDFSVFSTDSCLQLSDAVSPSLPGSLDSPVDISADSLD
modifications: displayed on T7 phage
B13: HUWE1 2341-2430: 90-aa human peptidome tile of HUWE1 displayed on T7 phage (protein, UniProt Q7Z6Z7 2341-2430, looked up, fragment)
chain: EMQVENELEDLIDELLERDGGSGNSTIIVSRSGEDESQEDVLMDEAPSNLSQASTLQANREDSMNILDPEDEEEHTQEEDSSGSNEDEDD
modifications: displayed on T7 phage
B14: MAP3K14 496-585: 90-aa human peptidome tile displayed on T7 phage (protein, UniProt Q99558 496-585, looked up, fragment)
chain: LGQALEGLEYLHSRRILHGDVKADNVLLSSDGSHAALCDFGHAVCLQPDGLGKSLLTGDYIPGTETHMAPEVVLGRSCDAKVDVWSSCCM
modifications: displayed on T7 phage
B15: ZNF469 811-900: 90-aa human peptidome tile displayed on T7 phage (protein, UniProt Q96JG9 811-900, looked up, fragment)
chain: PLRTGFLPSLAATPFPLPASDLDMEDDAKLDSLITEALNGMEYQSDNPEIDSSFIDVFADEEPSGPRGPSSGHPLKSKAGVTPESKAPPP
modifications: displayed on T7 phage

What follows are molecules tested against T1, Caspase-1 (assay: SEPARATE assay: human peptidome library digest with Caspase-1). Settings: top 20 enriched peptides, human library (90-aa tiles); normalized read counts digest vs mock digest.
Format: biochemical
Method: Streptavidin-coupled magnetic beads (Dynabeads M-280 Streptavidin, ThermoFisher Scientific) were washed (TBS, pH 7.4, 0.01% NP40) and resuspended in binding buffer (TBS, pH 7.4, 0.001% NP40) containing 2E9 plaque forming units per 10 μl of bead slurry. End-over-end mixing at room temperature was performed for one hour. Phage-coated beads were washed three times with wash buffer and transferred into two protein LoBind Eppendorf tubes blocked with TBS, pH 7.4 containing 1% BSA.
Digestion occurred overnight at room temperature with end-over-end rotation. […] To remove any residual biotinylated phage that may have been nonspecifically released, the 150 μl supernatant of the quenched digest reaction is then incubated with a fresh 10 μl of slurry volume M280 streptavidin beads (pre-washed three times with wash buffer) in a LoBind Eppendorf tube blocked with TBS, pH 7.4 containing 1% BSA at room temperature for one hour with end-over-end rotation.
10 μl slurry volume of protein G magnetic dynabeads were washed in buffer (TBS, pH 7.4, 0.01% NP40) and then resuspended in 50 μl TBS, pH 7.4, 0.01% NP40 containing 4 μg of M2 FLAG antibody for thirty minutes at room temperature with end-over-end rotation. The 150 μl quenched digest reaction is added to the 10 μl FLAG-coated Protein G beads and incubated for 60 minutes at room temperature with end-over-end rotation to capture phage particles released at the protease digest step. Beads are rinsed once with 100 μl wash buffer and stored at −80° C. until PCR amplification.
Library PCR preparation, high-throughput DNA sequencing, and peptide read count data generation was performed as described previously.^44 Briefly, library peptide inserts are amplified by resuspending 10 μl of FLAG-coated Protein G beads in PCR1 master mix containing the T7-Pep2_PCR1_F forward primer ([…]) (SEQ ID NO:3) and a T7-SEPARATE vector specific reverse primer ([…]) (SEQ ID NO:4), which includes an adapter sequence for sample-specific barcoding and Illumina P7 adapter incorporation during a subsequent PCR2 reaction. The PCR2 amplicons are pooled and sequenced using an Illumina NextSeq instrument in standard output mode to obtain single-end 50 nucleotide reads. Dual indexed sample demultiplexing and clonal read count determination were performed using exact sequence matching. […] To calculate the normalization factor, 100 peptides were randomly selected from the mock digest conditions with a read count ranging between 10 and 40. The median read count value for these 100 peptides is calculated for each sample. The random peptide selection and median calculation is performed 20 times and the average of the 20 median values is calculated for each sample. Finally, the normalization factor is calculated by dividing the average median value for each sample by that for one of the mock digest conditions. Read counts are then converted to normalized read counts by dividing each sample's read count values by the normalization factor. Fold enrichments are calculated for each peptide by dividing their normalized read counts in the digest condition by the normalized read counts in the mock digest condition. The fold enrichments can be visualized in an MA plot by transforming the normalized read count data into a log ratio (M, on the y-axis) and a mean average (A, on the x-axis) between the digest and mock digest conditions.
Work on B1 yielded a Caspase1 fold change of 16.49 fold.
For B2, the Caspase1 fold change was 21.06 fold.
With B3 the Caspase1 fold change was 19.74 fold.
Work on B4 yielded a Caspase1 fold change of 17.58 fold.
For B5, the Caspase1 fold change was 18.67 fold.
Work on B6 yielded a Caspase1 fold change of 16.35 fold.
For B7, the Caspase1 fold change was 19.1 fold.
For B8, the Caspase1 fold change was 16.39 fold.
Work on B9 yielded a Caspase1 fold change of 21.04 fold.
B10 gave a Caspase1 fold change of 18.78 fold.
For B11, the Caspase1 fold change was 22.71 fold.
In the case of B12, the Caspase1 fold change is reported as 17.06 fold.
In the case of B13, the Caspase1 fold change is reported as 16.55 fold.
With B14 the Caspase1 fold change was 16.5 fold.
For B15, the Caspase1 fold change was 16.76 fold.
